Results published in patent US20140288007A1.

T1: recombinant RgpB propeptide, P95493
T1 chain: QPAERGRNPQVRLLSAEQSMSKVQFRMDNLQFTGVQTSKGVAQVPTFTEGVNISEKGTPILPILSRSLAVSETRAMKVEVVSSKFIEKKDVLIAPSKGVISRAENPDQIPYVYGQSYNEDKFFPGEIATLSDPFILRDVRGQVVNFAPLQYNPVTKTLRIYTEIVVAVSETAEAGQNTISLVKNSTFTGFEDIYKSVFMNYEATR


Columns and labels:
[1] = molecular target: caspase 3; test: cell-based or functional assay
[2] = molecular target: RgpB (mature Arg-gingipain purified from P. gingivalis HG66) (Porphyromonas gingivalis) (UniProt P95493); test: cell-based or functional assay
[3] = molecular target: papain (UniProt P00784); test: cell-based or functional assay
[4] = molecular target: Kgp on P. gingivalis W50 whole cells (Lys-specific activity, GPKNa substrate) (Porphyromonas gingivalis) (UniProt Q51817); test: cell-based or functional assay
[5] = molecular target: Whole cell W50 (proteolytic activity on BapNa substrate); test: cell-based or functional assay
[6] = molecular target: RgpB (mature Arg-gingipain purified from P. gingivalis HG66) (Porphyromonas gingivalis) (UniProt P95493); test: enzyme inhibition kinetics (non-competitive, Ki′), chromogenic substrate BapNA, secondary plot of Vmax observed against inhibitor concentration
[7] = molecular target: T1, recombinant RgpB propeptide, P95493

Chain of UniProt P00784 (P00784 134-345 limits assumed): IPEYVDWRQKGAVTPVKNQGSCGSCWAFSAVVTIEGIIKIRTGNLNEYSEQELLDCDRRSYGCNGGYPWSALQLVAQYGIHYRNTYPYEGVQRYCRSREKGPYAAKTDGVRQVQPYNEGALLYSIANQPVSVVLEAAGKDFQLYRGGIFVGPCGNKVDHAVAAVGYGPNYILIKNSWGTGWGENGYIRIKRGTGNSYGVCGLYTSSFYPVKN

| Molecule | % Proteolytic Activity (Ac-DEVD-pNa 200 uM; inhibitor 100 mg/L) [1] [%] | % Proteolytic Activity (BapNa; inhibitor 50 mg/L) [2] [%] | % Proteolytic Activity (BapNa; inhibitor 40 mg/L) [3] [%] | % Proteolytic Activity (whole cells, GPKNa; inhibitor 40 mg/L) [4] [%] | % Proteolytic Activity (whole cells, GPKNa; inhibitor 80 mg/L) [4] [%] | inhibition of RgpB activity, DQ BSA, 2 h incubation [2] [%] | % Proteolytic Activity (whole cells, BapNa; inhibitor 40 mg/L) [5] [%] | % Proteolytic Activity (whole cells, BapNa; inhibitor 80 mg/L) [5] [%] | Ki [6] [nM] | RgpB proteolytic activity, DQ-BSA fluorescent substrate, 11 h time course [7] |
| --- | --- | --- | --- | --- | --- | --- | --- | --- | --- | --- |
| recombinant Kgp propeptide (from UniProt Q51817 25-1732) | 121 | 105 | 88 | 65 | 40 |  |  |  |  |  |
| recombinant RgpB propeptide (from UniProt P95493 25-229) | 129 |  | 68 |  |  | 50 | 68 | 59 | 11.8 |  |
| RgpB (mature Arg-gingipain purified from P. gingivalis HG66) (protein) YTPVEEKENGRMIVIVPKKYEEDIEDFVDWKNQRGLRTEVKVAEDIASPVTANAIQQFVKQEYEKEGNDLTYVLLVGDHKDIPAKITPGIKSDQVYGQIVGNDHYNEVFIGRFSCESKEDLKTQIDRTIHYERNITTEDKWLGQALCIASAEGGPSADNGESDIQHENIIANLLTQYGYTKIIKCYDPGVTPKNIIDAFNGGISLANYTGHGSETAWGTSHFGTTHVKQLTNSNQLPFIFDVACVNGDFLYNVPCFAEALMRAQKDGKPTGTVAIIASTINQSWASPMRGQDEMNEILCEKHPNNIKRTFGGVTMNGMFAMVEKYKKDGEKMLDTWTVFGDPSLLVRTLVPTKMQVTAPANISASAQTFEVACDYNGAIATLSDDGDMVGTAIVKDGKAIIKLNESIADETNLTLTVVGYNKVTVIKDVKVEGTSIADVANDKPYTVAVSGKTITVESPAAGLTIFDMNGRRVATAKNRMVFEAQNGVYAVRIATEGKTYTEKVIVK |  |  |  |  |  |  |  |  |  | Addition of 10 mg/L (0.44 µM) or 20 mg/L (0.88 µM) RgpB propeptide resulted in near total inhibition of RgpB proteolytic activity |
